Test results as given in patent US20250361297A1 (ADAPTAM THERAPEUTICS S L, published 2025).

Columns and labels:
[1] = molecular target: T1, mouse Siglec-15, full length, expressed on HEK293T cells (mouse); test: IgG1 titration, flow cytometry on HEK293T cells expressing mouse Siglec-15
T1 construct: also called mS15; HEK293T cells expressing mouse Siglec-15
T1 chain: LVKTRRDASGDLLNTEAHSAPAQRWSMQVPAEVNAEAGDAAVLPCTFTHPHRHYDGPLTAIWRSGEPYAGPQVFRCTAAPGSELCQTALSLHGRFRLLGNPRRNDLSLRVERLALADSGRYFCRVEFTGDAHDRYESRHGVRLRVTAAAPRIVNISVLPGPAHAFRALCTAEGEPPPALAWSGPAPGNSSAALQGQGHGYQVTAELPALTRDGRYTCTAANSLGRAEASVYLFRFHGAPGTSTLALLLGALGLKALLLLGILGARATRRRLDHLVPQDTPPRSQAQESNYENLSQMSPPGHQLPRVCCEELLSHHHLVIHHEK
Protocol: The antibodies were titrated against HEK293T cells expressing mouse Siglec-15 or HEK293T cells expressing a truncated human Siglec-15 consisting solely of domain 2 (FIG. 9).
For the ELISA, antigens were immobilized on high-binding plates, and the full-length IgG1 anti-Siglec-15 antibodies were titrated beginning at a concentration of 10 μg/ml. After washing, an anti-human IgG Fab-specific HRP-conjugated secondary antibody was applied for detection. Palivizumab was included as the negative control. Optical densities were measured to generate binding curves from which EC50 values were derived. In the flow cytometry assay, MOLM-13 cells expressing human Siglec-15 and MOLM-13 wild-type cells (negative control) were incubated with titrated antibodies starting at 10 μg/ml. After incubation, cells were washed and incubated with an anti-human Fc-specific secondary antibody conjugated with a fluorescent marker. Flow cytometric analysis was conducted, and fluorescence intensity was used to calculate EC50 values, providing a quantitative assessment of the antibodies' cell surface binding efficacy. HEK293T cells were genetically engineered to express full-length mouse Siglec-15 and a truncated version of human Siglec-15 encompassing only domain 2. Antibodies were titrated starting at a concentration of 10 μg/ml and detected with an anti-human Fc-specific secondary antibody to detect bound primary antibodies. […] Results were analyzed and ranked based on the EC50 values.

[2] = molecular target: T2, human Siglec-15, full length, expressed on cells (human, UniProt Q6ZMC9 20-328); test: IgG1 titration, flow cytometry on MOLM-13 human Siglec-15 cells
T2 construct: also called hS15; MOLM-13 Siglec-15 expressing cells
T2 sequence: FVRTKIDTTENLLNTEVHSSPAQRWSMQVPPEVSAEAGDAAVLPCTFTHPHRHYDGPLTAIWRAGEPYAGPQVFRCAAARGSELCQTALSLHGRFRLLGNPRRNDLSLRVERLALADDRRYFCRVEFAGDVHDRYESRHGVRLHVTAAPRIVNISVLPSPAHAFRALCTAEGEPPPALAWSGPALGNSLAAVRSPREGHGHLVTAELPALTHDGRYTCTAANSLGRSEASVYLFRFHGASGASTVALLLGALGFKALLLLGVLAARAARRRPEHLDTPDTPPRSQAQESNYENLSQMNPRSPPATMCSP

[3] = molecular target: T3, truncated human Siglec-15 comprising only domain 2 (D2), expressed on HEK293T cells (human, UniProt Q6ZMC9 168-251, limits assumed); test: flow cytometry, HEK293T cells expressing only domain 2 of human Siglec-15, fold change of Siglec15 gMFI relative to 2ry control
T3 construct: also called domain 2-only human Siglec-15; Siglec-15 Domain 2 (D2) HEK293T cells
T3 sequence: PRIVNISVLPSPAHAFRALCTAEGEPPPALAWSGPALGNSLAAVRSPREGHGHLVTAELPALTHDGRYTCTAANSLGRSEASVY
Protocol: Assessment of the binding of anti-Siglec-15 antibodies to HEK293T cells expressing full length human Siglec-15, or mutant human Siglec-15 (R143A) or the domain 2 of human Siglec-15 by Flow cytometry: Siglec-15+, Siglec-15+R143A, and Siglec-15 Domain 2 (D2) HEK293T cells were detached using tryple and washed once with PBS, resuspended in 1× flow cytometry buffer (PBS with 1% FBS) at approximately 1-2×10\hat{ }6 cells/mL. Then, anti-Siglec-15 mAbs were added to the cell suspension at the desired concentration, starting at 10 μg/mL and performing 1/3 dilutions. Cells were incubated with the indicated antibodies for 30-60 minutes at 4° C. in the dark to prevent degradation of the fluorescent signal. After the primary antibody incubation, cells were washed twice with PBS or flow cytometry buffer by centrifuging at 300-500× g for 5 minutes and the pellet resuspended in fresh buffer. The following antibody was added: anti-human IgG-PE at a 1:500 dilution. Cells were incubated with the secondary antibody for 30 minutes at 4° C. in the dark. Finally, cells were washed twice with PBS or flow cytometry buffer to remove any excess secondary antibody and acquired in a flow cytometer.

[4] = molecular target: T2, human Siglec-15, full length, expressed …; test: flow cytometry, HEK293T cells expressing human Siglec-15, anti-human IgG-PE, MFI
Protocol: Flow cytometry was used to quantify the antibodies bound to the HEK293T cells.
Then, anti-Siglec-15 mAbs were added to the cell suspension at the desired concentration, starting at 10 μg/mL and performing 1/3 dilutions. Cells were incubated with the indicated antibodies for 30-60 minutes at 4° C. in the dark to prevent degradation of the fluorescent signal. After the primary antibody incubation, cells were washed twice with PBS or flow cytometry buffer by centrifuging at 300-500× g for 5 minutes and the pellet resuspended in fresh buffer. The following antibody was added: anti-human IgG-PE at a 1:500 dilution. Cells were incubated with the secondary antibody for 30 minutes at 4° C. in the dark. Finally, cells were washed twice with PBS or flow cytometry buffer to remove any excess secondary antibody and acquired in a flow cytometer.

[5] = molecular target: T4, recombinant human Siglec-15-his protein (Bonopusbio) (human, UniProt Q6ZMC9 20-263); test: SPR (Biacore T200), antibody on CM5 chip, Siglec-15-his as analyte
T4 construct: Bought (CW37-50 ug in the ELISA; the SPR paragraph prints CW70-50 ug); whole entry named; also called recombinant human Siglec-15 protein
T4 sequence: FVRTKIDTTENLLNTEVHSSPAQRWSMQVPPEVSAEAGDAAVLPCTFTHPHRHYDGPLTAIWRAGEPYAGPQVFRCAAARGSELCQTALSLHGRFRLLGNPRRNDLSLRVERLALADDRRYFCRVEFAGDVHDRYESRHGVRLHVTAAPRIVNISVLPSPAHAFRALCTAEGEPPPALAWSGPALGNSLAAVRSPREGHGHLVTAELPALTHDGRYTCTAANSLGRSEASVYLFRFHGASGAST
Protocol: Binding affinity determination of anti-Siglec-15 monoclonal antibodies using BIACORE surface plasmon resonance: The purified anti-Siglec-15 monoclonal antibodies (mAbs) were characterized for binding affinity and binding kinetics by Biacore T200 system (GE healthcare, Pittsburgh, PA, USA). […] Un-reacted moieties on the biosensor surface were blocked with ethanolamine. Then, serially diluted recombinant human Siglec-15-his protein (Bonopusbio, CW70-50 ug), 2-fold serial dilution in HBS-EP buffer starting at 80 nM, were respectively flown onto the chip at a flow rate of 30 pL/min. The antigen-antibody association kinetics was followed for 2 minutes, and the dissociation kinetics was followed for 10 minutes. The association and dissociation curves were fit to a 1:1 Langmuir binding model using BIAcore evaluation software. The dissociation rate (kd) and association constant (ka) rate constants were obtained using Evaluation Software. The equilibrium dissociation constant (KD) was calculated from the ratio of kd over ka.

B1: ZLA-1214-B07 (antibody, V domains shown)
VH: QVQLVQSGAEVKKPGSSVKVSCKASGGTFSSYAISWVRQAPGQGLEWMGGIIPIFGTANYAQKFQGRVTITADESTSTAYMELSSLRSEDTAVYYCARDGGRDGYNPKKILEFDYWGQGTLVTVSS
VL: not shown
notes: Fully human, from phage display
Question: Which EC50 [1] does the source give for B1 here?
Answer: Its EC50 is 0.102 mg/L.

Question: And the EC50 [2]?
Answer: The EC50 was 0.133 mg/L.

Question: Does B1 bind [3]?
Answer: Result: no binding

B2: ZLA-1243-E01 (antibody, V domains shown)
VH: QVQLVQSGGGLVQPGRSLRLSCAASGFTFDDYAMHWVRQAPGKGLEWVSGISWNSGSIGYADSVKGRFTISRDNAKNSLYLQMNSLRAEDTALYYCAKGLWPSYDLDAFDIWGQGTMVTVSS
VL: QSALTQPASVSGSPGQSITLSCTGTSSDVGAYNFVSWYQQHPGTAPKLMIYEVSNRPSGVSDRFSGSKSGNTASLTISGLQAEDEADYYCSSYTSTIPPFVFGTGTKVTVL
notes: as for B1
Question: What does the source list for B2?
Answer: EC50 [1]: 0.0849 mg/L; EC50 [2]: 0.174 mg/L; binding result [3]: no binding

B3: ZLA-1212-B05 (antibody, V domains shown)
VH: QVQLVQSGGGVVQPGRSLRLSCAASGFTFSSYAMHWVRQAPGKGLEWVAVISYDGSNKYYADSVKGRFTISRDNSKNTLYLQMNSLRAEDTAVYYCAREGGSYYGYFDYWGQGTLVTVSS
VL: QSVLTQPPSVSVAPGKTARITCGGNNIGSKSVHWYQQKPGQAPVLVIYDDSDRPSGIPERFSGSNSGNTATLTISRVEAGDEADYYCQVWDSSSDHRVFGGGTKLTVL
notes: Fully human, from phage display; also called clone ZLA-1212-B05
Question: Which results are given for B3?
Answer: EC50 [1]: 0.168 mg/L; EC50 [2]: 0.215 mg/L; binding result [3]: no binding

B4: ZLA-1214-D08 (antibody, V domains shown)
VH: EVQLVQSGAEVKKPGASVKVSCKASGYTFTGYYMHWVRQAPGQGLEWMGRINPNSGGTNYAQKFQGRVTMTRDTSTSTAYMELSRLRSDDTAVYYCARVINDAFDMWGQGTMVTVSS
VL: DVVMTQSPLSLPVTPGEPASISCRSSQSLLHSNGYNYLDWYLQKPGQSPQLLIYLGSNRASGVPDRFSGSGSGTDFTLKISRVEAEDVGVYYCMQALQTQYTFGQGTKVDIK
notes: as for B1
Question: For B4, which EC50 [1] is on record?
Answer: The EC50 was 0.103 mg/L.

Question: What about the EC50 [2] of the same binder?
Answer: Its EC50 is 0.106 mg/L.

Question: Does B4 bind [3]?
Answer: Result: no binding

B5: S15B1-VH3 + VL2 (antibody, V domains shown)
VH: QVQLVQSGAEVKKPGASVKVSCKASGYAFSSSWMNWVKQAPGQGLEWIGRIYPGHGETNYNGKFKDRATMTADTSTSTVYMELSSLRSEDTAVYFCARVDNSDPYYFDYWGQGTTVTVSS
VL: DIVLTQSPASLAVSPGQRATITCRASKSVSTSGYSYMHWYQQKPGQPPKLLIYLASNLESGVPARFSGSGSGTDFTLTINPVEAEDTATYYCQHGRELPFTFGGGTKLEIK
notes: Humanized S15B1; also called humanized S15B1 VH3+VL2; huS15B1
Question: Which “EC50 (read off the curve)” value [4] does the source give for B5 here?
Answer: Its value is about 1 nM.

Question: And the Kd [5]?
Answer: The Kd was 0.0653 nM.

Question: What about the koff [5] of the same binder?
Answer: Its koff is 0.000293 s⁻¹.

Question: And the kon [5]?
Answer: Its kon is 4.49e+06 M⁻¹ s⁻¹.

B6: S15B1-VH2 + VL1 (antibody, V domains shown)
VH: QVQLVQSGAEVKKPGASVKVSCKASGYAFSSSWMNWVRQAPGQGLEWIGRIYPGHGETNYNGKFKDRVTMTADTSTSTVYMELSSLRSEDTAVYFCARVDNSDPYYFDYWGQGTTVTVSS
VL: DIVLTQSPASLAVSPGQRATITCRASKSVSTSGYSYMHWYQQKPGQPPKLLIYLASNLESGVPARFSGSGSGTDFTLTINPVEAEDTANYYCQHGRELPFTFGGGTKLEIK
notes: Humanized S15B1; also called humanized S15B1 VH2+VL1; huS15B1
Question: Which Kd [5] does the source give for B6 here?
Answer: Its Kd is 0.125 nM.

Question: What about the koff [5] of the same binder?
Answer: The koff was 0.000473 s⁻¹.

Question: And the kon [5]?
Answer: Its kon is 3.8e+06 M⁻¹ s⁻¹.

B7: S15B1-VH1 + VL1 (antibody, V domains shown)
VH: QVQLVQSGAEVKKPGASVKVSCKASGYAFSSSWMNWVRQAPGQGLEWIGRIYPGHGETNYNGKFKDRVTMTADTSTSTVYMELSSLRSEDTAVYFCARVDNSDPYYFDYWGQGTTVTVSS
VL: DIVLTQSPASLAVSPGQRATITCRASKSVSTSGYSYMHWYQQKPGQPPKLLIYLASNLESGVPARFSGSGSGTDFTLTINPVEAEDTANYYCQHGRELPFTFGGGTKLEIK
notes: Humanized S15B1; also called humanized S15B1 VH1+VL1; huS15B1
Question: What does the source list for B7?
Answer: Kd [5]: 0.136 nM; koff [5]: 0.000455 s⁻¹; kon [5]: 3.35e+06 M⁻¹ s⁻¹
